In patent US20260022166A1 (JIANGSU HENGRUI MEDICINE, published 2026):

Assays:
[1] = biological target: T1, His-tagged human TSLP antigen (huTSLP-his) (human); assay: ELISA, coated huTSLP-his
T1 construct: also called Human TSLP-his
Procedure: After discarding the liquid, 200 μl/well of blocking solution with 5% skimmed milk (Bright Dairy skimmed milk powder) diluted in PBS was added and incubated in a 37° C. incubator for 2 hours for blocking. After blocking was over, the blocking solution was discarded, and the plates were washed with PBST buffer (PBS containing 0.1% tween-20, pH 7.4) for 3 times. […] After incubation was over, the plates were washed with PBST for 3 times. […] After washing the plate with PBST for 6 times, 50 μl/well TMB chromogenic substrate (KPL, 52-00-03) was added and incubated at room temperature for 10-15 min, and 50 μl/well 1 M H₂SO₄ was added to stop the reaction. The absorption value was read by using a NOVOStar microplate reader at 450 nm.

native TSLP = native TSLP (human, UniProt Q969D9 29-159); assay: cell-based or functional assay
[2] = biological target: Fc-tagged human TSLP antigen (huTSLP-Fc) (human); assay: cell-based or functional assay

EC50 [1] [nM]	IC50 of inhibiting the proliferation of BaF3-TLSPR/IL7R cells induced by native TSLP (native TSLP) [nM]	IC50 of inhibiting TSLP-induced proliferation of BaF3 cells overexpressing TSLPR/IL7R [2] [nM]	Binder
0.159			hu119-03 (antibody, human IgG1, kappa, humanized, IgG1-YTE/kappa) heavy: EVQLVQSGAEVKKPGSSVKVSCKASGFTFSTYNMHWVKHAPGQGLEWIGAIYPGNGETSYNQKFKDRATLTVDKSTSTAYMELSSLRSEDTAVYYCAREDDYGEGYFDVWGQGTTVTVSSASTKGPSVFPLAPSSKSTSGGTAALGCLVKDYFPEPVTVSWNSGALTSGVHTFPAVLQSSGLYSLSSVVTVPSSSLGTQTYICNVNHKPSNTKVDKKVEPKSCDKTHTCPPCPAPELLGGPSVFLFPPKPKDTLYITREPEVTCVVVDVSHEDPEVKFNWYVDGVEVHNAKTKPREEQYNSTYRVVSVLTVLHQDWLNGKEYKCKVSNKALPAPIEKTISKAKGQPREPQVYTLPPSRDELTKNQVSLTCLVKGFYPSDIAVEWESNGQPENNYKTTPPVLDSDGSFFLYSKLTVDKSRWQQGNVFSCSVMHEALHNHYTQKSLSLSPGK light: DIVMTQSPDSLAVSLGERATINCRASESVDNSGLSFMHWYQQKPGQPPKLLIYRASNLGSGVPDRFSGSGSGTDFTLTISSLQAEDVAVYYCQQINTDPLTFGQGTKLEIKRTVAAPSVFIFPPSDEQLKSGTASVVCLLNNFYPREAKVQWKVDNALQSGNSQESVTEQDSKDSTYSLSSTLTLSKADYEKHKVYACEVTHQGLSSPVTKSFNRGEC
0.174			hu119-11 (antibody, human IgG1, kappa, V domains shown, humanized, IgG1-YTE/kappa) VH: EVQLVQSGAEVKKPGSSVKVSCKASGFTFSTYNMHWVKHAPGQGLEWIGAIYPGNGETSYNQKFKDRATLTVDKSTSTAYMELSSLRSEDTAVYYCAREDDYGEGYFDVWGQGTTVTVSS VL: DIVMTQSPDSLAVSLGERATINCRASESVDNSGLSFMHWYQQKPGQPPKLLLYRASNLGSGIPDRFSGSGSGTDFTLTISSLQAEDVAVYYCQQINTDPLTFGQGTKLEIKR
0.213			hu119-07 (antibody, human IgG1, kappa, humanized, IgG1-YTE/kappa) heavy: EVQLVQSGAEVKKPGSSVKVSCKASGFTFSTYNMHWVKHAPGQGLEWIGAIYPGNGETSYNQKFKDRATLTVDKSTSTAYMELSSLRSEDTAVYYCAREDDYGEGYFDVWGQGTTVTVSSASTKGPSVFPLAPSSKSTSGGTAALGCLVKDYFPEPVTVSWNSGALTSGVHTFPAVLQSSGLYSLSSVVTVPSSSLGTQTYICNVNHKPSNTKVDKKVEPKSCDKTHTCPPCPAPELLGGPSVFLFPPKPKDTLYITREPEVTCVVVDVSHEDPEVKFNWYVDGVEVHNAKTKPREEQYNSTYRVVSVLTVLHQDWLNGKEYKCKVSNKALPAPIEKTISKAKGQPREPQVYTLPPSRDELTKNQVSLTCLVKGFYPSDIAVEWESNGQPENNYKTTPPVLDSDGSFFLYSKLTVDKSRWQQGNVFSCSVMHEALHNHYTQKSLSLSPGK light: DIVLTQSPDSLAVSLGERATINCRASESVDNSGLSFMHWYQQKPGQPPKLLIYRASNLGSGVPDRFSGSGSGTDFTLTISSLQAEDVAVYYCQQINTDPLTFGQGTKLEIKRTVAAPSVFIFPPSDEQLKSGTASVVCLLNNFYPREAKVQWKVDNALQSGNSQESVTEQDSKDSTYSLSSTLTLSKADYEKHKVYACEVTHQGLSSPVTKSFNRGEC
1.02			hu179-08 (antibody, human IgG1, kappa, humanized, IgG1-YTE/kappa) heavy: EVQLVQSGAEVKKPGSSVKVSCKASGYTFSNYLIEWVRQAPGQGLEWIGVIDPGNGDTNYNENFKGRATLTADKSTSTAYIELSSLRSEDTAVYYCAREDNTGTAFDYWGQGTTVTVSSASTKGPSVFPLAPSSKSTSGGTAALGCLVKDYFPEPVTVSWNSGALTSGVHTFPAVLQSSGLYSLSSVVTVPSSSLGTQTYICNVNHKPSNTKVDKKVEPKSCDKTHTCPPCPAPELLGGPSVFLFPPKPKDTLYITREPEVTCVVVDVSHEDPEVKFNWYVDGVEVHNAKTKPREEQYNSTYRVVSVLTVLHQDWLNGKEYKCKVSNKALPAPIEKTISKAKGQPREPQVYTLPPSRDELTKNQVSLTCLVKGFYPSDIAVEWESNGQPENNYKTTPPVLDSDGSFFLYSKLTVDKSRWQQGNVFSCSVMHEALHNHYTQKSLSLSPGK light: DIVMTQTPLSLSVTPGQPASISCKASQSVSSDVTWYLQKPGQSPQLLIYYVSNHYTGVPDRFSGSGSGTDFTLKISRVEAEDVGVYYCQQHHRFPLTFGQGTKLEIKRTVAAPSVFIFPPSDEQLKSGTASVVCLLNNFYPREAKVQWKVDNALQSGNSQESVTEQDSKDSTYSLSSTLTLSKADYEKHKVYACEVTHQGLSSPVTKSFNRGEC
	0.0228	0.409	hu179-33 (antibody, human IgG1, kappa, V domains shown) VH: EVQLVQSGAEVKKPGSSVKVSCKASGYTFSNYLIEWVRQAPGQGLEWIGVIDPGVGDTNYNENFKGRATLTADKSTSTAYIELSSLRSEDTAVYYCAREDNTGTAFDYWGQGTTVTVSS VL: SIVMTQTPLSLSVTPGQPASISCKASQSVSSDVTWYLQKPGQSPQLLIYYVSEHYTGVPDRFSGSGYGTDFTLKISRVEAEDVGVYYCQQHHRFPLTFGQGTKLEIKR
		0.573	AMG157 (antibody, human IgG2, lambda, V domains shown) VH: QMQLVESGGGVVQPGRSLRLSCAASGFTFRTYGMHWVRQAPGKGLEWVAVIWYDGSNKHYADSVKGRFTITRDNSKNTLNLQMNSLRAEDTAVYYCARAPQWELVHEAFDIWGQGTMVTVSS VL: SYVLTQPPSVSVAPGQTARITCGGNNLGSKSVHWYQQKPGQAPVLVVYDDSDRPSWIPERFSGSNSGNTATLTISRGEAGDEADYYCQVWDSSSDHVVFGGGTKLTVLG
	0.289	0.444	hu3-13 (antibody, human IgG1, kappa, V domains shown) VH: EVQLVQSGAEVKKPGASVKVSCKASGYTFTDDYMNWVRQAPGQRLEWMGIISPYNGGTSYNQKFKGRVTLTVDKSASTAYMELSSLRSEDTAVYYCAREDYDYDGYAMDYWGQGTTVTVSS VL: EIVLTQSPATLSLSPGERATLSCRASSSVSYMHWYQQKPGQAPRPWIYATSNLASGVPARFSGSGSGTSYTLTISRLEPEDFAVYYCQQSDSGREFGGGTKVEIKR
0.344			hu119-13 (antibody, human IgG1, kappa, V domains shown, humanized, IgG1-YTE/kappa) VH: EVQLVQSGAEVKKPGSSVKVSCKASGFTFSTYNMHWVKHAPGQGLEWIGAIYPGNGETSYNQKFKDRATLTVDKSTSTAYMELSSLRSEDTAVYYCAREDDYGEGYFDVWGQGTTVTVSS VL: EIVLTQSPATLSLSPGERATLSCRASESVDNSGLSFMHWYQQKPGQAPRLLIYRASNLGSGIPARFSGSGSGTDFTLTISSLEPEDFAVYYCQQINTDPLTFGQGTKLEIKR
	1.53	0.43	hu119-30 (antibody, human IgG1, kappa, V domains shown) VH: EAQLVQSGAEVKKPGSSVKVSCKASGFTFSTYNMHWVRQAPGQGLEWIGAIYPGNGETSYNQKFKDRATLTVDKSTRTAYMELSSLRSEDTAVYYCAREDDYGEGYFDVWGQGTTVTVSS VL: DIVLTQSPATLSLSPGERATLSCRASESVDSSGLSFMHWYQQKPGQPPRLLLYRASNLGSGIPARFSGSGSGTDFTLTISSLEPEDFAVYYCQQINTDPLTFGQGTKLEIKR
0.345			hu119-18 (antibody, human IgG1, kappa, humanized, IgG1-YTE/kappa) heavy: EVQLVQSGAEVKKPGSSVKVSCKASGFTFSTYNMHWVKHAPGQGLEWIGAIYPGNGETSYNQKFKDRATLTVDKSTSTAYMELSSLRSEDTAVYYCAREDDYGEGYFDVWGQGTTVTVSSASTKGPSVFPLAPSSKSTSGGTAALGCLVKDYFPEPVTVSWNSGALTSGVHTFPAVLQSSGLYSLSSVVTVPSSSLGTQTYICNVNHKPSNTKVDKKVEPKSCDKTHTCPPCPAPELLGGPSVFLFPPKPKDTLYITREPEVTCVVVDVSHEDPEVKFNWYVDGVEVHNAKTKPREEQYNSTYRVVSVLTVLHQDWLNGKEYKCKVSNKALPAPIEKTISKAKGQPREPQVYTLPPSRDELTKNQVSLTCLVKGFYPSDIAVEWESNGQPENNYKTTPPVLDSDGSFFLYSKLTVDKSRWQQGNVFSCSVMHEALHNHYTQKSLSLSPGK light: EIVLTQSPATLSLSPGERATLSCRASESVDNSGLSFMHWYQQKPGQPPRLLLYRASNLGSGIPARFSGSGSGTDFTLTISSLEPEDFAVYYCQQINTDPLTFGQGTKLEIKRTVAAPSVFIFPPSDEQLKSGTASVVCLLNNFYPREAKVQWKVDNALQSGNSQESVTEQDSKDSTYSLSSTLTLSKADYEKHKVYACEVTHQGLSSPVTKSFNRGEC
		0.476	hu199-36 (antibody, human IgG1, kappa, V domains shown) VH: EVQLVQSGAEVKKPGASVKVSCKASGYTFTTYWMHWVKQAPGQGLEWMGMIDPSDSETTLIQKFKDKVTLTVDKSTSTAYMELSSLRSEDTAVYYCARTLDGYYDYWGQGTTVTVSS VL: DIQMTQSPSSLSASVGDRVTITCRASENIYSYLAWYQQKPGKSPQLLVYFAKTLAEGVPSRFSGSVSGTQFTLTISSLQPEDFATYYCQHHYGTPWTFGGGTKVEIKR
